These results are taken from doi:10.1101/737593 (bioRxiv, 2019).

B1: His6-MrpC lacking the 25 amino terminal residues (His6-MrpC_(ΔN25)) (domain or fragment, Myxococcus xanthus, UniProt Q9FDC4 26-248, looked up)
chain: MMVTANKLVPGQEAIDFKGYFKVESFPHNSTIYRPGDNTDRVYLLKSGRVRLMRIGKNSTRSVVSILRPGDLFGELFRPEGTPIEEMAIAAGEAEVWSIEGRDFRAQLEARPALAVDVVRAYAERVRALRKRVLGLTFKEVPARLADTLLTLVEAHGERCPHGGETDLRGITQQDLADLVGASRSFVSTLINEMKREGVLGNVGRILCVRDQKALRKIAGKEK
B2: hexa-histidine affinity tagged (His6)-MrpC (natural protein, Myxococcus xanthus, UniProt Q9FDC4 1-248, looked up)
chain: MHGFNRPLGPIGSNVVAPLQTTSSGMMVTANKLVPGQEAIDFKGYFKVESFPHNSTIYRPGDNTDRVYLLKSGRVRLMRIGKNSTRSVVSILRPGDLFGELFRPEGTPIEEMAIAAGEAEVWSIEGRDFRAQLEARPALAVDVVRAYAERVRALRKRVLGLTFKEVPARLADTLLTLVEAHGERCPHGGETDLRGITQQDLADLVGASRSFVSTLINEMKREGVLGNVGRILCVRDQKALRKIAGKEK
B3: His6-MrpC_(AAAA) (natural protein, Myxococcus xanthus, UniProt Q9FDC4 1-248, looked up)
chain: MHGFNRPLGPIGSNVVAPLQAAAAGMMVTANKLVPGQEAIDFKGYFKVESFPHNSTIYRPGDNTDRVYLLKSGRVRLMRIGKNSTRSVVSILRPGDLFGELFRPEGTPIEEMAIAAGEAEVWSIEGRDFRAQLEARPALAVDVVRAYAERVRALRKRVLGLTFKEVPARLADTLLTLVEAHGERCPHGGETDLRGITQQDLADLVGASRSFVSTLINEMKREGVLGNVGRILCVRDQKALRKIAGKEK

This data set deals with the molecule itself. Put plainly: SEC. For orientation: Size exclusion chromatography separates by hydrodynamic size, large species first.
As for B1, the stoichiometry N (as a rule, the number of molecules, sites or subunits per partner or assembly) stood at 2.
The same measure for B2: 2; for B3: 2.
